We go through 8 molecules from article PMC10231232, “Expanding the Physiological Role of Aryl-Alcohol Flavooxidases as Quinone Reductases” (Applied and Environmental Microbiology, 2023).

The subject of data set [1] is T1, PoAAO.
T1 construct: gene AAO; 60,903 Da
Kind of data set: steady-state kinetics, absorbance of aldehyde formed. The data set is classed as biochemical, Pleurotus ostreatus. The following applies: apparent, air-saturated (0.256 mM O2), 50 mM NaPi pH 6.0, 25°C. The source says:
steady-state kinetics, absorbance of aldehyde formed on PoAAO | The three enzymes oxidized the whole spectrum of alcohols although with different catalytic efficiencies.

Data set [2] relates to T2, PoAAO.
T2 construct: gene AAO
The settings on record: read-out: Km(acceptor); electron acceptor; p-methoxybenzyl alcohol as co-substrate (varied), ping-pong fit, anaerobic, 50 mM NaPi pH 6.0, 25°C.

For another data set, the target named is T3, BaAAO (Bjerkandera adusta, UniProt A0ABF7PQ87).
T3 construct: 62,610 Da; one cysteine
T3 sequence (A0ABF7PQ87 1-580): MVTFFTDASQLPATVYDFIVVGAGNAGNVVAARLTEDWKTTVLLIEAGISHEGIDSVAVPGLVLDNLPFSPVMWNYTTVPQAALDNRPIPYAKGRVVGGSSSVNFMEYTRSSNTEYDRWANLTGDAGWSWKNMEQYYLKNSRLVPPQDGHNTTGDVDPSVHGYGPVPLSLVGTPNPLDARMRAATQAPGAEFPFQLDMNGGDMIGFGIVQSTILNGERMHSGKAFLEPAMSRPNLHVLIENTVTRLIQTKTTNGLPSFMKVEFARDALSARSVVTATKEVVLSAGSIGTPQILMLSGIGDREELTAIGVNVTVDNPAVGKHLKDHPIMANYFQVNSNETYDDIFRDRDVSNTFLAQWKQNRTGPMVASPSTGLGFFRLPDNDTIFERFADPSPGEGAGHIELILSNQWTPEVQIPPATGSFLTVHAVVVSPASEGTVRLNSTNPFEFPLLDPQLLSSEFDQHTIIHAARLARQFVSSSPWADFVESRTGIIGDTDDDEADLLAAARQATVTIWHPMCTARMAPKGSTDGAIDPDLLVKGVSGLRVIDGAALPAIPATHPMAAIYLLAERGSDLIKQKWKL
Kind of data set: bi-substrate steady-state kinetics, anaerobic, BQ reduction at […] nm. The data set is classed as biochemical. The settings on record: electron acceptor, p-methoxybenzyl alcohol as co-substrate (varied), ping-pong fit, 50 mM NaPi pH 6.0, 25°C.

Another data set has as its target T4, PeAAO (Pleurotus eryngii, UniProt O94219).
T4 construct: gene aao; 61,847 Da
T4 sequence (O94219 28-593): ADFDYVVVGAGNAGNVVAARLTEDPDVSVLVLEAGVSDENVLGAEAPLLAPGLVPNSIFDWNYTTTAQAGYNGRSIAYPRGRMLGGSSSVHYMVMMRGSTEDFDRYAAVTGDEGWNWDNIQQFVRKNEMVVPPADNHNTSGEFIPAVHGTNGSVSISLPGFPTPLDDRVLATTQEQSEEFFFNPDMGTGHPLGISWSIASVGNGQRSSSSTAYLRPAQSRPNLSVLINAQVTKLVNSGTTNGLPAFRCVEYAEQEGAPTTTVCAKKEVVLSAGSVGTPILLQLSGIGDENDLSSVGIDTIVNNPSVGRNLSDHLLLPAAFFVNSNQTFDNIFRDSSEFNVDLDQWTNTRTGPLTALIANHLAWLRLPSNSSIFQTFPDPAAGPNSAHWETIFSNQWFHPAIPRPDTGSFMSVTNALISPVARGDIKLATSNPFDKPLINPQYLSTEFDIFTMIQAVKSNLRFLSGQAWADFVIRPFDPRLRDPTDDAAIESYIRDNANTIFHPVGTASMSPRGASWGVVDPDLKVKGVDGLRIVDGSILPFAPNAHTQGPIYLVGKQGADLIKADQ
The description is as above. The settings on record: electron acceptor, p-methoxybenzyl alcohol as co-substrate (varied), ping-pong fit, 50 mM NaPi pH 6.0, 25°C. Format: biochemical.

Substrate in data set [3]: COc1ccc(CO)cc1Cl
Kind of data set: steady-state kinetics, absorbance of aldehyde formed. The data set is classed as biochemical, Pleurotus eryngii. The settings on record: apparent, air-saturated (0.256 mM O2), 50 mM NaPi pH 6.0, 25°C. The source says: (§1) steady-state kinetics, absorbance of aldehyde formed on PeAAO | The three enzymes oxidized the whole spectrum of alcohols although with different catalytic efficiencies.

Substrate in data set [4]: CC=CC=CCO
The data set is described as above. The settings on record: apparent, air-saturated (0.256 mM O2), 50 mM NaPi pH 6.0, 25°C. Format: biochemical, Pleurotus eryngii.
Text: as §1

Substrate in data set [5]: OCc1cccc(Cl)c1
Kind of data set: purified protein, by the assay type. Details: steady-state kinetics, spectrophotometric alcohol oxidation to aldehyde, air-saturated 50 mM NaPi pH 6.0, 25 C. The settings on record: pH 6.0. The protocol:
Steady-state kinetic parameters were measured spectrophotometrically by monitoring the oxidation of the different alcohols to the corresponding aldehydes—Δε285, 16,950 M^−1 cm^−1 for [compound left out]; Δε240, 5,923 M^−1 cm^−1 for 3-chloro-benzyl alcohol; Δε309, 8,332 M^−1 cm^−1 for vanillyl alcohol; Δε307, 7,383 M^−1 cm^−1 for [compound left out]; Δε280, 30,140 M^−1 cm^−1 for 2,4-hexadien-1-ol from ([15]); Δε295, 15,000 M^−1 cm^−1 for 3-chloro-p-mehxoybenzyl alcohol from ([38]); and Δε310, 9,300 M^−1 cm^−1 for [compound left out] from Guillén et al. ([59])—in air-saturated (0.256 mM O2 concentration) 50 mM NaPi, pH 6.0, at 25°C. Steady-state kinetic analyses and statistical fits were performed using the SigmaPlot program. Apparent kinetic parameters in atmospheric oxygen were determined by fitting initial reaction rates (v0) at different alcohol concentrations to the Michaelis-Menten equation (equation 1). (1) v0/e = kcat[A]/Km + [A] The steady-state curves and resulting kinetic parameters for oxidation of different alcohols under atmospheric conditions with O2 as an electron acceptor were compared for PoAAO, BaAAO, and PeAAO (Fig. S4 and Table S1). The three enzymes oxidized the whole spectrum of alcohols although with different catalytic efficiencies.

Substrate in data set [6]: COc1ccc(CO)cc1Cl
Kind of data set: steady-state kinetics, absorbance of aldehyde formed. Format: biochemical, Bjerkandera adusta. The following applies: apparent, air-saturated (0.256 mM O2), 50 mM NaPi pH 6.0, 25°C. The source says: (§2) steady-state kinetics, absorbance of aldehyde formed on BaAAO | The three enzymes oxidized the whole spectrum of alcohols although with different catalytic efficiencies.

Substrate in data set [7]: OCc1cccc(Cl)c1
Described as above. The data set is classed as biochemical, Bjerkandera adusta. The following applies: apparent, air-saturated (0.256 mM O2), 50 mM NaPi pH 6.0, 25°C.
Text: as §2

Substrate in data set [8]: CC=CC=CCO
The description is as above. The settings on record: apparent, air-saturated (0.256 mM O2), 50 mM NaPi pH 6.0, 25°C. Format: biochemical, Bjerkandera adusta.
Text: as §2

Substrate in data set [9]: COc1cc(CO)ccc1O
The data set is described as above. The data set is classed as biochemical, Bjerkandera adusta. The settings on record: apparent, air-saturated (0.256 mM O2), 50 mM NaPi pH 6.0, 25°C.
Text: as §2

Like-named read-outs stand apart in the source and are kept apart here.

Turning to `OCc1cccc(Cl)c1` [3-chlorobenzyl alcohol], the Km in the data set on PoAAO [1] was determined as 80 ± 6 µM.

Turning to `COc1ccc(CO)cc1O` [isovanillyl alcohol], the Km in the data set on PoAAO [1] was 713 ± 44 µM.

Take `CC=CC=CCO` [2,4-hexadien-1-ol]: in the data set with PoAAO [1], the Km came out at 86 ± 4 µM.

As to `O=C1C=CC(=O)C=C1` [BQ, p-benzoquinone], the Michaelis constant (Km) was determined as 33 ± 4 µM in the data set on PoAAO [2], 70 ± 9 µM at BaAAO and 48 ± 6 µM at PeAAO.

Turning to `COc1ccc(CO)cc1OC` [veratryl alcohol], the Km with PoAAO [1] worked out at 212 ± 11 µM.

On to `COc1ccc(CO)cc1Cl` [3-chloro-p-methoxybenzyl alcohol], for which, in the data set on PoAAO [1], the Km came out at 9 ± 1 µM.

B1: PeAAO (Pleurotus eryngii) (protein)
chain: ADFDYVVVGAGNAGNVVAARLTEDPDVSVLVLEAGVSDENVLGAEAPLLAPGLVPNSIFDWNYTTTAQAGYNGRSIAYPRGRMLGGSSSVHYMVMMRGSTEDFDRYAAVTGDEGWNWDNIQQFVRKNEMVVPPADNHNTSGEFIPAVHGTNGSVSISLPGFPTPLDDRVLATTQEQSEEFFFNPDMGTGHPLGISWSIASVGNGQRSSSSTAYLRPAQSRPNLSVLINAQVTKLVNSGTTNGLPAFRCVEYAEQEGAPTTTVCAKKEVVLSAGSVGTPILLQLSGIGDENDLSSVGIDTIVNNPSVGRNLSDHLLLPAAFFVNSNQTFDNIFRDSSEFNVDLDQWTNTRTGPLTALIANHLAWLRLPSNSSIFQTFPDPAAGPNSAHWETIFSNQWFHPAIPRPDTGSFMSVTNALISPVARGDIKLATSNPFDKPLINPQYLSTEFDIFTMIQAVKSNLRFLSGQAWADFVIRPFDPRLRDPTDDAAIESYIRDNANTIFHPVGTASMSPRGASWGVVDPDLKVKGVDGLRIVDGSILPFAPNAHTQGPIYLVGKQGADLIKADQ
notes: 61,847 Da
For the molecule B1, in data set [3], the Km amounted to 9 ± 1 µM and the kcat is 34 ± 1 s⁻¹. Further, in data set [4], the Michaelis-Menten constant (Km) came to 94 ± 4 µM and the kcat is 119 ± 1 s⁻¹. In [5], the Michaelis constant (Km) turned out to be 107 ± 2 µM, the kcat amounted to 22 ± 1 s⁻¹ and the kcat/Km worked out at 203 ± 3 mM^-1s^- //.

B2: BaAAO (Bjerkandera adusta) (protein)
chain: MVTFFTDASQLPATVYDFIVVGAGNAGNVVAARLTEDWKTTVLLIEAGISHEGIDSVAVPGLVLDNLPFSPVMWNYTTVPQAALDNRPIPYAKGRVVGGSSSVNFMEYTRSSNTEYDRWANLTGDAGWSWKNMEQYYLKNSRLVPPQDGHNTTGDVDPSVHGYGPVPLSLVGTPNPLDARMRAATQAPGAEFPFQLDMNGGDMIGFGIVQSTILNGERMHSGKAFLEPAMSRPNLHVLIENTVTRLIQTKTTNGLPSFMKVEFARDALSARSVVTATKEVVLSAGSIGTPQILMLSGIGDREELTAIGVNVTVDNPAVGKHLKDHPIMANYFQVNSNETYDDIFRDRDVSNTFLAQWKQNRTGPMVASPSTGLGFFRLPDNDTIFERFADPSPGEGAGHIELILSNQWTPEVQIPPATGSFLTVHAVVVSPASEGTVRLNSTNPFEFPLLDPQLLSSEFDQHTIIHAARLARQFVSSSPWADFVESRTGIIGDTDDDEADLLAAARQATVTIWHPMCTARMAPKGSTDGAIDPDLLVKGVSGLRVIDGAALPAIPATHPMAAIYLLAERGSDLIKQKWKL
notes: 62,610 Da; one cysteine
On to B2, for which the Km in [6] is 49 ± 4 µM; in data set [7], 37 ± 5 µM; in data set [8], 854 ± 32 µM; in data set [9], 1960 ± 100 µM. The kcat in data set [6] amounted to 37 ± 1 s⁻¹; in data set [7], 13 ± 1 s⁻¹; in data set [8], 42 ± 1 s⁻¹; in data set [9] it was 38 ± 1 s⁻¹.

The term Km denotes the substrate concentration at which the rate is half of its maximum. The term kcat denotes the maximal rate divided by the concentration of active sites.
